Like-named read-outs stand apart in the source and are kept apart here. Numbered stars: 1 amine (or outer) side, 2 acyl side, 3 side chain; on linkers, the order of the positions; unused ones are H or OH. Square brackets hold non-standard residues; d marks the D form. Ends that are not written are not given here. * marks the point of attachment. Ala(2-Qui) = 2-quinolylalanine, O=C([C@H](Cc1ccc2ccccc2n1)N[*:1])[*:2]; Tyr(Me) = O-methyltyrosine, COc1ccc(C[C@H](N[*:1])C(=O)[*:2])cc1; Propanoyl(3-indol-3-yl) = O=C(CCc1c[nH]c2ccccc12)*; Phe(F5) = N[C@@H](Cc1c(F)c(F)c(F)c(F)c1F)C(=O)O; Arg(Me) = CNC(=N)NCCC[C@H](N)C(=O)O; Fmoc = O=C(OCC1c2ccccc2-c2ccccc21)*; Cha = N[C@@H](CC1CCCCC1)C(=O)O; azaGly = NNC(=O)O
Columns and labels:
[1] = molecular target: T1, human OT7T175 (metastin receptor) (human, UniProt Q969F8 1-398); experiment: FMAT competition with Cy-5-labeled metastin (40-54), hOT7T175-expressed CHO cells
T1 construct: expressed on CHO cells (hOT7T175-expressed CHO cells; hOT7T175/CHO); also called hOT7T175; h0T7T175

[2] = molecular target: T1, human OT7T175 (metastin receptor); experiment: cell-based or functional assay
[3] = molecular target: T1, human OT7T175 (metastin receptor); experiment: cell-based or functional assay; remark: listed apart in the source
[4] = molecular target: human OT7T175 (metastin receptor) (human) (UniProt Q969F8); experiment: cell-based or functional assay
Sequence of human OT7T175 (metastin receptor) (human) (Q969F8 whole entry L364H): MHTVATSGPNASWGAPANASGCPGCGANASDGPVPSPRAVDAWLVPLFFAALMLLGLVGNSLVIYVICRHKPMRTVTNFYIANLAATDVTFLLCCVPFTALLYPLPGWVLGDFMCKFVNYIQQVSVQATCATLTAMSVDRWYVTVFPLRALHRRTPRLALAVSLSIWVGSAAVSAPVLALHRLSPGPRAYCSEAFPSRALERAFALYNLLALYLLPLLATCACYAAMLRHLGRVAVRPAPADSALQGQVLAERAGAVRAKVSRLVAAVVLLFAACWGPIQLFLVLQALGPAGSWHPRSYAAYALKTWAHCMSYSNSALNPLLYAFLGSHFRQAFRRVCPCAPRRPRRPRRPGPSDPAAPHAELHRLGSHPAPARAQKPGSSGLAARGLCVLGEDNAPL

T1 sequence (Q969F8 whole entry L364H): as above

Binder: YNWNSFGLR[Tyr(Me)]-NH2 [Compound No. 18: [Tyr(Me)10]MS10]
- IC50 [1]: 7.7 nM
- intracellular Ca ion level-increasing activity (FLIPR) [2]: 1 specific activity to metastin (1-54)

B1: Compound No. 233: [D-Tyr1,Ile3,AzaGly7,Arg(Me)9]MS10 (peptide)
peptide: [dY]NINSF[azaGly]L[Arg(Me)]F-NH2
modifications: N-terminus assumed
SMILES: CC[C@H](C)[C@H](NC(=O)[C@H](CC(N)=O)NC(=O)[C@H](N)Cc1ccc(O)cc1)C(=O)N[C@@H](CC(N)=O)C(=O)N[C@@H](CO)C(=O)N[C@@H](Cc1ccccc1)C(=O)NNC(=O)N[C@@H](CC(C)C)C(=O)N[C@@H](CCCNC(=N)NC)C(=O)N[C@@H](Cc1ccccc1)C(N)=O
- IC50 [1]: 23 nM
- intracellular Ca ion level-increasing activity (FLIPR) [3]: 1 specific activity to metastin (1-54)

Binder: YNWNSFGLRY-NH2 [Compound No. 109: [Tyr10]MS10]
- IC50 [1]: 23 nM
- intracellular Ca ion level-increasing activity (FLIPR) [2]: 20 specific activity to metastin (1-54)

Binder: YNWNLFGLRF-NH2 [Compound No. 24: [Leu5]MS10]
- IC50 [1]: 0.83 nM
- intracellular Ca ion level-increasing activity (FLIPR) [2]: 1 specific activity to metastin (1-54)

Binder: DNWNSFGLRF-NH2 [Compound No. 75: [Asp1]MS10]
- IC50 [1]: 880 nM
- intracellular Ca ion level-increasing activity (FLIPR) [2]: 1 specific activity to metastin (1-54)

B2: Compound No. 234: [D-Tyr1,Val3,AzaGly7,Arg(Me)9]MS10 (peptide)
peptide: [dY]NVNSF[azaGly]L[Arg(Me)]F-NH2
modifications: N-terminus assumed
SMILES: CNC(=N)NCCC[C@H](NC(=O)[C@H](CC(C)C)NC(=O)NNC(=O)[C@H](Cc1ccccc1)NC(=O)[C@H](CO)NC(=O)[C@H](CC(N)=O)NC(=O)[C@@H](NC(=O)[C@H](CC(N)=O)NC(=O)[C@H](N)Cc1ccc(O)cc1)C(C)C)C(=O)N[C@@H](Cc1ccccc1)C(N)=O
- IC50 [1]: 47 nM
- intracellular Ca ion level-increasing activity (FLIPR) [3]: 1 specific activity to metastin (1-54)

Binder: YNWNSFALRF-NH2 [Compound No. 50: [Ala7]MS10]
- IC50 [1]: 190 nM
- intracellular Ca ion level-increasing activity (FLIPR) [2]: 30 specific activity to metastin (1-54)

Binder: YNWNSFSLRF-NH2 [Compound No. 101: [Ser7]MS10]
- IC50 [1]: 100 nM
- intracellular Ca ion level-increasing activity (FLIPR) [2]: 10 specific activity to metastin (1-54)

B3: Compound No. 235: [D-Tyr1,Ala3,AzaGly7,Arg(Me)9]MS10 (peptide)
peptide: [dY]NANSF[azaGly]L[Arg(Me)]F-NH2
modifications: N-terminus assumed
SMILES: CNC(=N)NCCC[C@H](NC(=O)[C@H](CC(C)C)NC(=O)NNC(=O)[C@H](Cc1ccccc1)NC(=O)[C@H](CO)NC(=O)[C@H](CC(N)=O)NC(=O)[C@H](C)NC(=O)[C@H](CC(N)=O)NC(=O)[C@H](N)Cc1ccc(O)cc1)C(=O)N[C@@H](Cc1ccccc1)C(N)=O
- IC50 [1]: 100 nM
- intracellular Ca ion level-increasing activity (FLIPR) [3]: 1 specific activity to metastin (1-54)

B4: Compound No. 274: des(1-2)-Acetyl-[Ala3,AzaGly7,Arg(Me)9]MS10 (peptide)
peptide: Ac-ANSF[azaGly]L[Arg(Me)]F-NH2
SMILES: CNC(=N)NCCC[C@H](NC(=O)[C@H](CC(C)C)NC(=O)NNC(=O)[C@H](Cc1ccccc1)NC(=O)[C@H](CO)NC(=O)[C@H](CC(N)=O)NC(=O)[C@H](C)NC(C)=O)C(=O)N[C@@H](Cc1ccccc1)C(N)=O
- intracellular Ca ion level-increasing activity (FLIPR) (specific activity to metastin (1-54)) [4]: 1

Binder: [dY]WNSF[azaGly]L[Arg(Me)]F-NH2 [Compound No. 222: des(1)-[D-Tyr2,AzaGly7,Arg(Me)9]MS10]
- IC50 [1]: 33 nM
- intracellular Ca ion level-increasing activity (FLIPR) [3]: 5 specific activity to metastin (1-54)

Binder: YNWNSFGLRX (Pya(4)10; C-terminal amide) [Compound No. 17: [Pya(4)10]MS10]
- IC50 [1]: 0.0066 nM
- intracellular Ca ion level-increasing activity (FLIPR) [2]: 5 specific activity to metastin (1-54)

Binder: YN[dW]NSFGLRF-NH2 [Compound No. 40: [D-Trp3]MS10]
- intracellular Ca ion level-increasing activity (FLIPR) [2]: 30 specific activity to metastin (1-54)

B5: Compound No. 224: des(1)-[D-Tyr2,D-Trp3,Arg(Me)9]MS10 (peptide)
peptide: [dY][dW]NSFGL[Arg(Me)]F-NH2
modifications: N-terminus assumed
SMILES: CNC(=N)NCCC[C@H](NC(=O)[C@H](CC(C)C)NC(=O)CNC(=O)[C@H](Cc1ccccc1)NC(=O)[C@H](CO)NC(=O)[C@H](CC(N)=O)NC(=O)[C@@H](Cc1c[nH]c2ccccc12)NC(=O)[C@H](N)Cc1ccc(O)cc1)C(=O)N[C@@H](Cc1ccccc1)C(N)=O
- IC50 [1]: 140 nM
- intracellular Ca ion level-increasing activity (FLIPR) [3]: 2 specific activity to metastin (1-54)

Binder: Fmoc-NWNSFGLRF-NH2 [Compound No. 55: des(1)-Fmoc-MS10]
- intracellular Ca ion level-increasing activity (FLIPR) [2]: 5 specific activity to metastin (1-54)

Binder: YNWNSFGXRF (Nle8; C-terminal amide) [Compound No. 105: [Nle8]MS10]
- IC50 [1]: 880 nM
- intracellular Ca ion level-increasing activity (FLIPR) [2]: 1 specific activity to metastin (1-54)

B6: Compound No. 114: des(1-3)-3-(3-Indolyl)propionyl-MS10 (peptide)
peptide: {Propanoyl(3-indol-3-yl)}-NSFGLRF-NH2
SMILES: CC(C)C[C@H](NC(=O)CNC(=O)[C@H](Cc1ccccc1)NC(=O)[C@H](CO)NC(=O)[C@H](CC(N)=O)NC(=O)CCc1c[nH]c2ccccc12)C(=O)N[C@@H](CCCNC(=N)N)C(=O)N[C@@H](Cc1ccccc1)C(N)=O
- IC50 [1]: 550 nM
- intracellular Ca ion level-increasing activity (FLIPR) [2]: 3 specific activity to metastin (1-54)

Binder: YNWNSFGLRX (Nal(2)10; C-terminal amide) [Compound No. 110: [Nal(2)10]MS10]
- IC50 [1]: 24 nM
- intracellular Ca ion level-increasing activity (FLIPR) [2]: 20 specific activity to metastin (1-54)

Binder: YNWNSFGARF-NH2 [Compound No. 45: [Ala8]MS10]
- intracellular Ca ion level-increasing activity (FLIPR) (specific activity to metastin (1-54)) [4]: 1

Binder: LPNYNWNSFGLRF-NH2 [Compound No. 32: Leu-Pro-Asn-MS10]
- IC50 [1]: 25 nM
- intracellular Ca ion level-increasing activity (FLIPR) [2]: 10 specific activity to metastin (1-54)

Binder: [dY]NWNSF[azaGly]LR(Me)F-NH2 [Compound No. 232: [D-Tyr1,AzaGly7,Arg(Me)9]MS10]
- IC50 [1]: 49 nM
- intracellular Ca ion level-increasing activity (FLIPR) [3]: 3 specific activity to metastin (1-54)

B7: Compound No. 1: Metastin (peptide)
peptide: GTSLSPPPESSGSRQQPGLSAPHSRQIPAPQGAVLVQREKDLPNYNWNSFGLRF
- intracellular Ca ion level-increasing activity (FLIPR) [2]: 1 specific activity to metastin (1-54)

B8: Compound No. 54: des(1-2)-Fmoc-MS10 (peptide)
peptide: Fmoc-WNSFGLRF-NH2
SMILES: CC(C)C[C@H](NC(=O)CNC(=O)[C@H](Cc1ccccc1)NC(=O)[C@H](CO)NC(=O)[C@H](CC(N)=O)NC(=O)[C@H](Cc1c[nH]c2ccccc12)NC(=O)OCC1c2ccccc2-c2ccccc21)C(=O)N[C@@H](CCCNC(=N)N)C(=O)N[C@@H](Cc1ccccc1)C(N)=O
- IC50 [1]: 450 nM
- intracellular Ca ion level-increasing activity (FLIPR) [2]: 5 specific activity to metastin (1-54)

Binder: [dY]NWNSFGLRF-NH2 [Compound No. 42: [D-Tyr1]MS10]
- intracellular Ca ion level-increasing activity (FLIPR) [2]: 30 specific activity to metastin (1-54)

Binder: [dY][dN]WNSF[azaGly]LR(Me)F-NH2 [Compound No. 237: [D-Tyr1,D-Asn2,AZaGly7,Arg(Me)9]MS10]
- IC50 [1]: 27 nM
- intracellular Ca ion level-increasing activity (FLIPR) [3]: 3 specific activity to metastin (1-54)

B9: Compound No. 201: [Ala(2-Qui)10]MS10 (peptide)
peptide: YNWNSFGLR[Ala(2-Qui)]-NH2
modifications: N-terminus assumed
SMILES: CC(C)C[C@H](NC(=O)CNC(=O)[C@H](Cc1ccccc1)NC(=O)[C@H](CO)NC(=O)[C@H](CC(N)=O)NC(=O)[C@H](Cc1c[nH]c2ccccc12)NC(=O)[C@H](CC(N)=O)NC(=O)[C@@H](N)Cc1ccc(O)cc1)C(=O)N[C@@H](CCCNC(=N)N)C(=O)N[C@@H](Cc1ccc2ccccc2n1)C(N)=O
- IC50 [1]: 820 nM
- intracellular Ca ion level-increasing activity (FLIPR) [3]: 1 specific activity to metastin (1-54)

B10: Compound No. 315: des(1)-[D-Asn2,Cha3,AzaGly7,Arg(Me)9]MS10 (peptide)
peptide: [dN][Cha]NSF[azaGly]L[Arg(Me)]F-NH2
modifications: N-terminus assumed
SMILES: CNC(=N)NCCC[C@H](NC(=O)[C@H](CC(C)C)NC(=O)NNC(=O)[C@H](Cc1ccccc1)NC(=O)[C@H](CO)NC(=O)[C@H](CC(N)=O)NC(=O)[C@H](CC1CCCCC1)NC(=O)[C@H](N)CC(N)=O)C(=O)N[C@@H](Cc1ccccc1)C(N)=O
- intracellular Ca ion level-increasing activity (FLIPR) (specific activity to metastin (1-54)) [4]: 1

Binder: [dY]WNSFGL[Arg(Me)]F-NH2 [Compound No. 217: des(1)-[D-Tyr2,Arg(Me)9]MS10]
- IC50 [1]: 250 nM
- intracellular Ca ion level-increasing activity (FLIPR) [3]: 20 specific activity to metastin (1-54)

Binder: [dY]INSFGL[Arg(Me)]F-NH2 [Compound No. 228: des(1)-[D-Tyr2,Ile3,Arg(Me)9]MS10]
- IC50 [1]: 40 nM
- intracellular Ca ion level-increasing activity (FLIPR) [3]: 5 specific activity to metastin (1-54)

Binder: [dY]TNSF[azaGly]L[Arg(Me)]F-NH2 [Compound No. 241: des(1)-[D-Tyr2,Thr3,AzaGly7,Arg(Me)9]MS10]
- IC50 [1]: 56 nM
- intracellular Ca ion level-increasing activity (FLIPR) [3]: 1 specific activity to metastin (1-54)

Binder: [dN]WNSFGL[Arg(Me)]F-NH2 [Compound No. 216: des(1)-[D-Asn2,Arg(Me)9]MS10]
- IC50 [1]: 700 nM
- intracellular Ca ion level-increasing activity (FLIPR) [3]: 1 specific activity to metastin (1-54)

Binder: Fmoc-NSFGLRF-NH2 [Compound No. 53: des(1-3)-Fmoc-MS10]
- intracellular Ca ion level-increasing activity (FLIPR) [2]: 1 specific activity to metastin (1-54)

Binder: YNWNSFGLRX (Cha10; C-terminal amide) [Compound No. 112: [Cha10]MS10]
- IC50 [1]: 370 nM
- intracellular Ca ion level-increasing activity (FLIPR) [2]: 2 specific activity to metastin (1-54)

B11: Compound No. 203: [D-Tyr1,Cha6,Arg(Me)9]MS10 (peptide)
peptide: YNWNSXGLRF
modifications: D-Tyr1; Cha6; Arg(Me)9; C-terminal amide
notes: printed structure is the same as that of Compound No. 172
- IC50 [1]: 37 nM
- intracellular Ca ion level-increasing activity (FLIPR) [3]: 10 specific activity to metastin (1-54)

Binder: YNWNSFGLXF (Har9; C-terminal amide) [Compound No. 97: [Har9]MS10]
- IC50 [1]: 370 nM
- intracellular Ca ion level-increasing activity (FLIPR) [2]: 10 specific activity to metastin (1-54)

Binder: YNWNSFGLR[Phe(F5)]-NH2 [Compound No. 111: [Phe(F5)10]MS10]
- IC50 [1]: 140 nM
- intracellular Ca ion level-increasing activity (FLIPR) [2]: 3 specific activity to metastin (1-54)
